Patent US20220177593A1 (published 2022)
Changes are numbered by the printed parent chain.

B1: Ab301 (antibody, V domains shown)
VH: EVKLEASGGGLVQPGMSVKLSCTTSGFTFSDYWMEWVRQAPGKGLEWVAEIRNKVNNYATYYGKSVKGRFTISRDDSKSIVYLQMNSIRSEDTGIYYCNTLRLFAYWGQGTLVTVSA
VL: DIVMTQAPLSISVTPGESPSMSCRSSKSLLHRNGITYVYWYLQKPGKSPQLLIYRMSTLASGVPDRFSGSGSETDFTLKINKVEAEDVGIYYCGQLLENPYTFGAGTRLEIK
B2: Ab303 (antibody, V domains shown)
VH: EVQLVESGGGVVQPGRSLRLSCAASGFTFSDYWMEWVRQAPGKGLEWVAEIRNKVNNYATYYGKSVKGRFTISRDNSKNTLYLQMNSLRAEDTAVYYCNTLRLFAYWGQGTLVTVSS
VL: DIQMTQSPSSLSASVGDRVTITCRSSKSLLHRQGITYVYWYQQKPGKVPKLLIYRMSTLASGVPSRFSGSGSGTDFTLTISSLQPEDVATYYCGQLLENPYTFGQGTKLEIK
B3: Ab305 (antibody, V domains shown)
VH: B2 VH with V11L, A23T, A49G, N76D, N79S, T80I, L81A, R89K, A90T, S117A
VL: B2 VL
B4: Ab304 (antibody, V domains shown)
VH: B2 VH with V11L, R16G, A49G, N76E, T80S, R89K, A90T, L112T
VL: B2 VL
B5: Ab302 (antibody, V domains shown)
VH: B2 VH with V11L, Q13K, R16G, R19K, N76D, R89K, A90T
VL: B2 VL

Target: human Axl expressed on the surface of cells (human, UniProt P30530 26-894)
Experiment: flow cytometry

human Axl expressed on the surface of cells, sequence (P30530 26-894): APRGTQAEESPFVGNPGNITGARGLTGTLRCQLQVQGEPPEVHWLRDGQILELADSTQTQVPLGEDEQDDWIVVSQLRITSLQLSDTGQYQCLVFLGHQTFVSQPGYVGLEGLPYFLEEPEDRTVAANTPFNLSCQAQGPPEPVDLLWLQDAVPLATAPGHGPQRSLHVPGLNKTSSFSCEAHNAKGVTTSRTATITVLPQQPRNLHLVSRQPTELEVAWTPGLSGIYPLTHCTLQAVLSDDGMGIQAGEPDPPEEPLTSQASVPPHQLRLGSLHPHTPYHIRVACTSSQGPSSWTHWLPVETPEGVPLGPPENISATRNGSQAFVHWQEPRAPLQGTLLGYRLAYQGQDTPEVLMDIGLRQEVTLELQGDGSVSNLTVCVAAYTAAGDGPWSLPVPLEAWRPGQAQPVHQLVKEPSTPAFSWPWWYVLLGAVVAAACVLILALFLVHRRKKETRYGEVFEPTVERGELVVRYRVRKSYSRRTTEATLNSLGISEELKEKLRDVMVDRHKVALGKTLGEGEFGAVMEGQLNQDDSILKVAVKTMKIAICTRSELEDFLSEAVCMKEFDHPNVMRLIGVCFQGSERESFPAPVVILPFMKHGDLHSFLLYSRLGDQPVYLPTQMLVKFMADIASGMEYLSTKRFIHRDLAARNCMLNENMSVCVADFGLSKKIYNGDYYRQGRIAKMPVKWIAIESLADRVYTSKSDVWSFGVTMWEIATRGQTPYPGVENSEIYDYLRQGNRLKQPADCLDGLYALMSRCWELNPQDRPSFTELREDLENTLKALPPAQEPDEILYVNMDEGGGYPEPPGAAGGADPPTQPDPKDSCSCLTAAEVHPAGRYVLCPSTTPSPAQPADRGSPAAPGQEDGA

Row | Binder | EC50 [µg/mL]
1 | B1 | 0.025

Target: Axl (human, UniProt P30530 26-449, biotinylated (site not stated))
Experiment: BLI

Axl, sequence (P30530 whole entry): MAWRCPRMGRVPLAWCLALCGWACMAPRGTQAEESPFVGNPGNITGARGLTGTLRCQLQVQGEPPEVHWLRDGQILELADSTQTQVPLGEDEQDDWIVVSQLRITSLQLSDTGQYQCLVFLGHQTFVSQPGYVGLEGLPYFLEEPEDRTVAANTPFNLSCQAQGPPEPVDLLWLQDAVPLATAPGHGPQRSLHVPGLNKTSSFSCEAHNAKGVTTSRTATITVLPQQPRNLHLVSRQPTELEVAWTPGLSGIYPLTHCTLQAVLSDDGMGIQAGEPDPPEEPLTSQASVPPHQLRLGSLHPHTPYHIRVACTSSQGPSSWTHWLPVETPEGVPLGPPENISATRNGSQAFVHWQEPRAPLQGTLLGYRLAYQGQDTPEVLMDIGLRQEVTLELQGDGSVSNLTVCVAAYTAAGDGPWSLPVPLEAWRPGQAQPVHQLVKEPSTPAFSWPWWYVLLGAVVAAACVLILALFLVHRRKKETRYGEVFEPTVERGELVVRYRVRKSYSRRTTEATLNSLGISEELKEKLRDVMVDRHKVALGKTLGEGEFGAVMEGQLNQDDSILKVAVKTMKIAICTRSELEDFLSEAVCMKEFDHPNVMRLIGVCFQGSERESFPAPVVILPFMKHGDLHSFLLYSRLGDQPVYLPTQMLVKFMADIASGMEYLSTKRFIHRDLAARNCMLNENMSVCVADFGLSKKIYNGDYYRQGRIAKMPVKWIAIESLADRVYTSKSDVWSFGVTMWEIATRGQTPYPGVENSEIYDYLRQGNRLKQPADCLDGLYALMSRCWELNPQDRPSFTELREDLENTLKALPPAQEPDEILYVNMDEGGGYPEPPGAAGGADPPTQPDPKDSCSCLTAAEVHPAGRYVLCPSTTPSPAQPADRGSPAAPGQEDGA

Row | Binder | Kd [nM]
2 | B1 | 0.466
3 | B2 | 0.386
4 | B3 | 1.55
5 | B4 | 0.909
6 | B5 | 0.705

Target: recombinant human Axl-msFc (human, UniProt P30530 26-449)
Experiment: ELISA; 4-P fit parameter C

recombinant human Axl-msFc, sequence (P30530 26-449): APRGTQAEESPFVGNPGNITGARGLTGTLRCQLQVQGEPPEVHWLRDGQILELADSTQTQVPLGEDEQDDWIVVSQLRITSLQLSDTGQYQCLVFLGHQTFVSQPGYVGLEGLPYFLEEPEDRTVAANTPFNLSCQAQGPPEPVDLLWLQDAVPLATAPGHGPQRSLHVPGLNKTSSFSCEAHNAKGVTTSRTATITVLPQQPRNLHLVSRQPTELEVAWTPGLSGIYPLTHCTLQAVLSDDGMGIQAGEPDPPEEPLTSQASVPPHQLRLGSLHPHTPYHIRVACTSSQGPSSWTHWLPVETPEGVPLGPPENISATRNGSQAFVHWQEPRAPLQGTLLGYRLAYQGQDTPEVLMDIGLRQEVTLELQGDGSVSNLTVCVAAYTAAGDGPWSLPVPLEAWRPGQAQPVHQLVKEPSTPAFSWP

Row | Binder | EC50 [µg/mL]
7 | B1 | 0.019
8 | B2 | 0.019
9 | B3 | 0.019
10 | B4 | 0.018
11 | B5 | 0.02
